In PMC2716403 (2009):

Target: Ran (Homo sapiens, UniProt P62826)
Test: ITC

Kd [µM]	Binder
6.5	AGSSWQCDTCLLQNKVTDNKCIACQAAKL (GDP-bound Ran) [Nup153 ZnF1 ZnF1]
6.6	VGSWECPVCCVSNKAEDSRCVSCTSEKPG (GDP-bound Ran) [Nup153 ZnF3 ZnF3]
1	Nup153 ZnF region (protein, GDP-bound Ran) AGSSWQCDTCLLQNKVTDNKCIACQAAKLPLKETAKQTGIGTPSKSDKPASTSGTGFGDKFKPAIGTWDCDTCLVQNKPEAVKCVACETPKPGTGVKRALPLTVASESPVTASSSTTVTTGTLGFGDKFKRPVGSWECPVCCVSNKAEDSRCVSCTSEKPGLVSASSSNSVPVSLPSGGCLGLDKFKKPEGSWDCEVCLVQNKADSTKCIACESAKPGTKSEFKGFGT
20	Nup153 ZnF region (protein) AGSSWQCDTCLLQNKVTDNKCIACQAAKLPLKETAKQTGIGTPSKSDKPASTSGTGFGDKFKPAIGTWDCDTCLVQNKPEAVKCVACETPKPGTGVKRALPLTVASESPVTASSSTTVTTGTLGFGDKFKRPVGSWECPVCCVSNKAEDSRCVSCTSEKPGLVSASSSNSVPVSLPSGGCLGLDKFKKPEGSWDCEVCLVQNKADSTKCIACESAKPGTKSEFKGFGT
